Test results: US20190359693A1

What was measured:
[1] = target: hemagglutinin (HA) of influenza B/Brisbane/60/08 (Victoria) (influenza B virus); test: cell-based or functional assay
[2] = target: hemagglutinin (HA) of influenza B/Florida/04/06 (Yamagata) (influenza B virus); test: cell-based or functional assay
[3] = target: hemagglutinin (HA) of influenza A/Wisconsin/67/05 (H3N2) (influenza A virus); test: cell-based or functional assay
[4] = target: HA of H3N2 A/Wisconsin/67/2005 (influenza A virus); test: AlphaLISA competition vs CR8057
[5] = target: HA of H3N2 A/Brisbane/10/2007 (influenza A virus); test: AlphaLISA competition vs CR8057
[6] = target: HA of H3N2 A/Brisbane/10/2007 (influenza A virus); test: AlphaLISA competition vs SD1036
[7] = target: HA of H7N3 A/NIBRG/60 (A/mallard/NL/12/00) (influenza A virus); test: cell-based or functional assay
[8] = target: HA of H5N1 A/Vietnam/1194/04 (influenza A virus); test: cell-based or functional assay
[9] = target: hemagglutinin (HA) of influenza virus H3N2 A/Wisconsin/67/05 (influenza A virus); test: cell-based or functional assay
[10] = target: hemagglutinin (HA) of influenza A/Brisbane/10/07 (H3N2) (influenza A virus A/Brisbane/10/07 (H3N2)); test: cell-based or functional assay
[11] = target: HA of B/Brisbane/60/2008 (Victoria) (influenza B virus); test: cell-based or functional assay
[12] = target: hemagglutinin (HA) of influenza virus H1N1 A/Puerto Rico/8/34-MA (influenza A virus); test: cell-based or functional assay
[13] = target: HA of H3N2 A/Wisconsin/67/2005 (influenza A virus); test: cell-based or functional assay
[14] = target: hemagglutinin (HA) of influenza virus H1N1 A/California/07/09 (influenza A virus); test: cell-based or functional assay
[15] = target: hemagglutinin (HA) of influenza A/waterfowl/Hong Kong/MPA892/06 (H4) (influenza A virus A/waterfowl/Hong Kong/MPA892/06 (H4)); test: cell-based or functional assay
[16] = target: HA of H1N1 A/Brisbane/59/07 (influenza A virus); test: cell-based or functional assay
[17] = target: hemagglutinin (HA) of influenza virus H5N1 A/Vietnam/1194/04 (influenza A virus); test: cell-based or functional assay
[18] = target: HA of H1N1 A/New Caledonia/20/1999 (influenza A virus); test: cell-based or functional assay
[19] = target: hemagglutinin (HA) of influenza A/New York/107/03 (PR8) (influenza A virus A/New York/107/03 (PR8)); test: cell-based or functional assay
[20] = target: HA of B/Florida/04/2006 (Yamagata) (influenza B virus); test: cell-based or functional assay
[21] = target: HA of H3N2 A/Brisbane/10/2007 (influenza A virus); test: cell-based or functional assay
[22] = target: hemagglutinin (HA) of influenza A/chicken/Germany/n/49 (H10N7) (influenza A virus A/chicken/Germany/n/49 (H10N7)); test: cell-based or functional assay
[23] = target: HA of B/Brisbane/60/2008 (Victoria) (influenza B virus); test: AlphaLISA competition vs SD1084
[24] = target: HA of B/Florida/04/2006 (Yamagata) (influenza B virus); test: AlphaLISA competition vs SD1084
[25] = target: HA of B/Brisbane/60/2008 (Victoria) (influenza B virus); test: AlphaLISA competition vs SD1086
[26] = target: HA of B/Florida/04/2006 (Yamagata) (influenza B virus); test: AlphaLISA competition vs SD1086
[27] = target: HA of H3N2 A/Brisbane/10/2007 (influenza A virus); test: AlphaLISA competition vs 39.29
[28] = target: HA of H3N2 A/Wisconsin/67/2005 (influenza A virus); test: AlphaLISA competition vs CR8020
[29] = target: HA of H3N2 A/Brisbane/10/2007 (influenza A virus); test: AlphaLISA competition vs CR8020
[30] = target: HA of H7N3 A/NIBRG/60 (A/mallard/NL/12/00) (influenza A virus); test: BLI steady state
[31] = target: HA of H3N2 A/Wisconsin/67/2005 (influenza A virus); test: BLI steady state
[32] = target: HA of H1N1 A/Brisbane/59/07 (influenza A virus); test: BLI steady state
[33] = target: HA of H7N9 A/Hangzhou/1/2013 (influenza A virus); test: BLI steady state
[34] = target: HA of H1N1 A/New Caledonia/20/1999 (influenza A virus); test: BLI steady state
[35] = target: HA of H3N2 A/Brisbane/10/2007 (influenza A virus); test: BLI steady state
[36] = target: HA of B/Brisbane/60/2008 (Victoria) (influenza B virus); test: AlphaLISA competition vs SD1083
[37] = target: HA of B/Florida/04/2006 (Yamagata) (influenza B virus); test: AlphaLISA competition vs SD1083
[38] = target: HA of B/Brisbane/60/2008 (Victoria) (influenza B virus); test: AlphaLISA competition vs CR9114
[39] = target: HA of H3N2 A/Wisconsin/67/2005 (influenza A virus); test: AlphaLISA competition vs CR9114
[40] = target: HA of H1N1 A/New Caledonia/20/1999 (influenza A virus); test: AlphaLISA competition vs CR9114
[41] = target: HA of H5N1 A/Vietnam/1203/2004 (influenza A virus); test: AlphaLISA competition vs CR9114
[42] = target: HA of H3N2 A/Brisbane/10/2007 (influenza A virus); test: AlphaLISA competition vs CR9114
[43] = target: HA of B/Brisbane/60/2008 (Victoria) (influenza B virus); test: AlphaLISA competition vs SD1087
[44] = target: HA of B/Florida/04/2006 (Yamagata) (influenza B virus); test: AlphaLISA competition vs SD1087
[45] = target: HA of B/Brisbane/60/2008 (Victoria) (influenza B virus); test: AlphaLISA competition vs SD1085
[46] = target: HA of B/Florida/04/2006 (Yamagata) (influenza B virus); test: AlphaLISA competition vs SD1085
[47] = target: HA of H3N2 A/Brisbane/10/2007 (influenza A virus); test: AlphaLISA competition vs SD1038

SD1036 (VHH), sequence (VHH): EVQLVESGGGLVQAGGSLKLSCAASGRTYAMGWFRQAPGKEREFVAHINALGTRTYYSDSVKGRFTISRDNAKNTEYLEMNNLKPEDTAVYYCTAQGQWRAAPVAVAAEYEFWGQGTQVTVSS

In the case of CR9114-LALA (antibody), the ADCC induction (EC50 grade, FcγRIIIa reporter bioassay) [1] is reported as > 0.5 µg/mL, the ADCC induction (EC50 grade, FcγRIIIa reporter bioassay) [2] is reported as > 0.5 µg/mL and the ADCC induction (EC50 grade, FcγRIIIa reporter bioassay) [3] is reported as > 0.5 µg/mL.
SD1036 (VHH) was tested, and the pIC50 [4] was < 7, the pIC50 [5] was < 7 and the pIC50 [6] was 9.1. For the same substance, the VNA titer [7] was 10.9 nM, the VNA titer [8] was > 1000 nM and the neutralization titer [9] was < 1000 nM. The VNA IC50 [10] was 0.059 µM, the VNA titer [11] was > 1000 nM and the neutralization titer [12] was < 1000 nM. For the same substance, the VNA titer [13] was > 1000 nM, the neutralization titer [14] was < 1000 nM and the VNA IC50 [15] was 0.044 µM. The VNA titer [16] was > 1000 nM, the neutralization titer [17] was < 1000 nM and the VNA titer [18] was > 1000 nM. For the same substance, the VNA IC50 [19] was 0.011 µM, the VNA titer [20] was > 1000 nM and the VNA titer [21] was 86.7 nM. The VNA IC50 [22] was 0.01 µM, the pIC50 [23] was < 7 and the pIC50 [24] was < 7. The pIC50 [25] was < 7, the pIC50 [26] was < 7 and the pIC50 [27] was 9.2. The pIC50 [28] was 7.2, the pIC50 [29] was 9.2 and the Kd [30] was 0.002 µM. The Kd [31] was 0.122 µM, the Kd [32] was 0.29 µM and the Kd [33] was 0.003 µM. The Kd [34] was 0.23 µM, the Kd [35] was 0.01 µM and the pIC50 [36] was < 7. For the same substance, the pIC50 [37] was < 7, the pIC50 [38] was < 7 and the pIC50 [39] was 7.8. The pIC50 [40] was < 7, the pIC50 [41] was < 7 and the pIC50 [42] was 9.4. For the same substance, the pIC50 [43] was < 7, the pIC50 [44] was < 7 and the pIC50 [45] was < 7. For the same substance, the pIC50 [46] was < 7 and the pIC50 [47] was 9.3.
With CR9114 (antibody) the ADCC induction (EC50 grade, FcγRIIIa reporter bioassay) [1] was < 0.1 µg/mL, the ADCC induction (EC50 grade, FcγRIIIa reporter bioassay) [2] was < 0.1 µg/mL and the ADCC induction (EC50 grade, FcγRIIIa reporter bioassay) [3] was < 0.1 µg/mL.
